Columns and labels:
[1] = target: T1, recombinant Fc-tagged NRP2 ectodomain (human, UniProt O60462 21-864); experiment: […] (10, 20 or 50 µL, […]) in 0.2 mL PBS for 2 h; […]; details: both partners purified
T1 construct: not shown: Fc, C-terminal, kept
T1 sequence: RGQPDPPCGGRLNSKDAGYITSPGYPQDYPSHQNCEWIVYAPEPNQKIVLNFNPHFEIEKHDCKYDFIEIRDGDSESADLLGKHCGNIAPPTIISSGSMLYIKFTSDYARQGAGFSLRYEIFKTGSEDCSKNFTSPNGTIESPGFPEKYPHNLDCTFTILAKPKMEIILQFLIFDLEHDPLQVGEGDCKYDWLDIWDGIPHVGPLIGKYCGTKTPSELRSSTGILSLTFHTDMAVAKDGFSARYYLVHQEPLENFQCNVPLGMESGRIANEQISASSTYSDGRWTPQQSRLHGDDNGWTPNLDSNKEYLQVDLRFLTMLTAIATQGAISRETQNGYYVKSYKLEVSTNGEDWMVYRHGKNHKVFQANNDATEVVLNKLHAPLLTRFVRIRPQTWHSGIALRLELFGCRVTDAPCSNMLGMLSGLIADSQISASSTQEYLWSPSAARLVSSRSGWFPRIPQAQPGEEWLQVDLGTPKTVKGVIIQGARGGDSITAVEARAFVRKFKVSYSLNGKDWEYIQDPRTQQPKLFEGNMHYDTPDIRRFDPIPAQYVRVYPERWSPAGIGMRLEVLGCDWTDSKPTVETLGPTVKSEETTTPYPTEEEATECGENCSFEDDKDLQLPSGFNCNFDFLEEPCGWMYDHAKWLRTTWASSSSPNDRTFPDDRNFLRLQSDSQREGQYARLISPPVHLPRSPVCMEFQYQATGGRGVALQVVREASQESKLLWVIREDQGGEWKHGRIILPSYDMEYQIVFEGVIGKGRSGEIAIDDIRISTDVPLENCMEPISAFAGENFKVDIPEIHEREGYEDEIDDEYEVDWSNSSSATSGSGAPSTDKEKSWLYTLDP

[2] = target: T2, N-terminal GST-tagged soluble ectodomain of NRP2 (aa 17-865) (human, UniProt O60462 17-865); experiment: pull-down; details: both partners purified
T2 construct: not shown: GST, N-terminal, kept
T2 sequence: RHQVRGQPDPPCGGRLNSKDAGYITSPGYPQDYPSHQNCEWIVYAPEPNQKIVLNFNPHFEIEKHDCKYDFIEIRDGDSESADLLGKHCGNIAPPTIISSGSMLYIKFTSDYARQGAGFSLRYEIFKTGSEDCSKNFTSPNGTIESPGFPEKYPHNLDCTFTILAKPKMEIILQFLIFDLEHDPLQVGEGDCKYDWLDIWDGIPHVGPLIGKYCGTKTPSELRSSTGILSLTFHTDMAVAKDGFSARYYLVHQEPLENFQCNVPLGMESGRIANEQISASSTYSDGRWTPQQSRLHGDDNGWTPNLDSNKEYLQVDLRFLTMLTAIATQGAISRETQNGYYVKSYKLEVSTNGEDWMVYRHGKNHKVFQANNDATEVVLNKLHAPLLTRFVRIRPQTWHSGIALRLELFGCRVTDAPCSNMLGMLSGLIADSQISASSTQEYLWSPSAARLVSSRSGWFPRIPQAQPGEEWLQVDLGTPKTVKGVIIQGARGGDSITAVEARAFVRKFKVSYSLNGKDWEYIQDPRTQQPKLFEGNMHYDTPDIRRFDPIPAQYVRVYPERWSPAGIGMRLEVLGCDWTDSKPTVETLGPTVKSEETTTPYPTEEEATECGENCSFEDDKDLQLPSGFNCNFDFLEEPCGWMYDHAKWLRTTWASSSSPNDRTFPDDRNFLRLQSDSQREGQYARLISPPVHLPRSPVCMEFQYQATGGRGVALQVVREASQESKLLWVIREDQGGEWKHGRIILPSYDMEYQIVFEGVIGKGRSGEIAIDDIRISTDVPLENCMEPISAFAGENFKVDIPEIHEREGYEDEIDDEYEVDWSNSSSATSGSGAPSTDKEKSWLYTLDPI

B1: RABV G on purified ERA(G/Flag) particles (natural protein)
chain: KFPIYTILDKLGPWSPIDIHHLSCPNNLVVEDEGCTNLSGFSYMELKVGYILAIKMNGFTCTGVVTEAETYTNFVGYVTTTFKRKHFRPTPDACRAAYNWKMAGDPRYEESLHNPYPDYRWLRTVKTTKESLVIISPSVADLDPYDRSLHSRVFPSGKCSGVAVSSTYCSTNHDYTIWMPENPRLGMSCDIFTNSRGKRASKGSETCGFVDERGLYKSLKGACKLKLCGVLGLRLMDGTWVAMQTSNETKWCPPDQLVNLHDFRSDEIEHLVVEELVRKREECLDALESIMTTKSVSFRRLSHLRKLVPGFGKAYTIFNKTLMEADAHYKSVRTWNEILPSKGCLRVGGRCHPHVNGVFFNGIILGPDGNVLIPEMQSSLLQQHMELLESSVIPLVHPLADPSTVFKDGDEAEDFVEVHLPDVHNQVSGVDLGLPNWGKYVLLSAGALTALMLIIFLMTCCRRVNRSEPTQHNLRGTGREVSVTPQSGKIISSWESHKSGGETRL
[1]
  binding result: binds
[2]
  binding result: binds
